# Assay results taken from patent EP4768505A1 (Shenzhen Genocury Biotech Co., Ltd, dated 2026).
# T1: Mouse CD79A+CD79B antigen (mouse) (UniProt P11911)
# T1 sequence (looked up) 1: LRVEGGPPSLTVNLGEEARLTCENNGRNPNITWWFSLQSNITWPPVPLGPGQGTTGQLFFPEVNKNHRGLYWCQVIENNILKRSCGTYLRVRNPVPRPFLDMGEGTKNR
# T1 sequence (looked up) 2: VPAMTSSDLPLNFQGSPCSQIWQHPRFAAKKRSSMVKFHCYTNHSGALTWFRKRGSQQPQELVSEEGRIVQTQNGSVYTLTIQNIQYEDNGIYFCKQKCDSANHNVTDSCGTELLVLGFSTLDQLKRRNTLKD
# T2: human CD79B antigen (a full-length protein containing signal peptide, UniProt ID: P40259) on cells (human, UniProt P40259 29-229)
# T2 construct: whole, on cells; Used for the flow cytometry on transfected HEK-293T cells; F2A residues left at the C-terminus after cleavage are not described; also called CD79B-GFP molecule; HEK-293T cells overexpressing the CD79B-GFP molecule
# T2 sequence (looked up): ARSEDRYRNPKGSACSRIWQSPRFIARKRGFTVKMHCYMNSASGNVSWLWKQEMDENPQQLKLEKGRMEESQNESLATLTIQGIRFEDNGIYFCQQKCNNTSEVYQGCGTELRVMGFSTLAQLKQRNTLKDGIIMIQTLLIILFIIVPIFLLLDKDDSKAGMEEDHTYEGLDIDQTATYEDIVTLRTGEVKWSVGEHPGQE
# T3: Mouse CD79B antigen (mouse, UniProt P15530 26-158, limits assumed)
# T3 sequence (looked up): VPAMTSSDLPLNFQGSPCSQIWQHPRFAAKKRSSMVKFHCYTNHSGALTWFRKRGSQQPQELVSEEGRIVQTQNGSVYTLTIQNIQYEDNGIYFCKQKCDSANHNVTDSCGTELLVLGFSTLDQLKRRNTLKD
# Key:
# [1] = target: BSA (UniProt P02769); assay: ELISA on coated BSA control, anti-myc detection; 20ng antibody added
# [2] = target: BSA (UniProt P02769); assay: ELISA on coated BSA control, anti-myc detection; 2ng antibody added
# [3] = target: Human CD79A+CD79B antigen (human) (UniProt P11912); assay: ELISA on coated antigen, anti-myc detection; 20ug antibody added
# Target sequence in this assay (P11912 33-143 limits assumed, chain 1 of 2, one chain of several): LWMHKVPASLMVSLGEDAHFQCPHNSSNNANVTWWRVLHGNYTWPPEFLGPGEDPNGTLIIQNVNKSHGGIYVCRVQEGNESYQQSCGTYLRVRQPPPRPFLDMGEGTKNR
# [4] = target: T1, Mouse CD79A+CD79B antigen (mouse); assay: as above
# [5] = target: Human CD79B Protein, His Tag (MALS verified), Cat. No. #CDB-H52H3-1mg, ACRO (human) (UniProt P40259); assay: as above
# [6] = target: Human CD79A+CD79B antigen (human) (UniProt P11912); assay: ELISA on coated antigen, anti-myc detection; 200ng antibody added
# Target sequence in this assay (P11912 33-143 limits assumed, chain 1 of 2, one chain of several): as above
# [7] = target: T1, Mouse CD79A+CD79B antigen (mouse); assay: as above
# [8] = target: Human CD79B Protein, His Tag (MALS verified), Cat. No. #CDB-H52H3-1mg, ACRO (human) (UniProt P40259); assay: as above
# [9] = target: BSA (UniProt P02769); assay: ELISA on coated BSA control, anti-myc detection; 2ug antibody added
# [10] = target: Human CD79A+CD79B antigen (human) (UniProt P11912); assay: ELISA on coated antigen, anti-myc detection; 20ng antibody added
# Target sequence in this assay (P11912 33-143 limits assumed, chain 1 of 2, one chain of several): as above
# [11] = target: T1, Mouse CD79A+CD79B antigen (mouse); assay: as above
# [12] = target: Human CD79B Protein, His Tag (MALS verified), Cat. No. #CDB-H52H3-1mg, ACRO (human) (UniProt P40259); assay: as above
# [13] = target: T2, human CD79B antigen (a full-length …); assay: flow cytometry on HEK-293T cells overexpressing CD79B-GFP, 0.1 mg/mL, APC-His tag antibody
# [14] = target: BSA (UniProt P02769); assay: ELISA on coated BSA control, anti-myc detection; 20ug antibody added
# [15] = target: BSA (UniProt P02769); assay: ELISA on coated BSA control, anti-myc detection; 200ng antibody added
# [16] = target: Human CD79A+CD79B antigen (human) (UniProt P11912); assay: ELISA on coated antigen, anti-myc detection; 2ng antibody added
# Target sequence in this assay (P11912 33-143 limits assumed, chain 1 of 2, one chain of several): as above
# [17] = target: T1, Mouse CD79A+CD79B antigen (mouse); assay: as above
# [18] = target: Human CD79B Protein, His Tag (MALS verified), Cat. No. #CDB-H52H3-1mg, ACRO (human) (UniProt P40259); assay: as above
# [19] = target: BSA (UniProt P02769); assay: ELISA on coated BSA control, anti-myc detection; 200µg [sic] antibody added (lowest step of the dilution series)
# [20] = target: Human CD79A+CD79B antigen (human) (UniProt P11912); assay: ELISA on coated antigen, anti-myc detection; 200µg [sic] antibody added (lowest step of the dilution series)
# Target sequence in this assay (P11912 33-143 limits assumed): as the sequence (P11912 33-143 limits assumed, chain 1 of 2, one chain of several) above
# [21] = target: T1, Mouse CD79A+CD79B antigen (mouse); assay: as above
# [22] = target: Human CD79B Protein, His Tag (MALS verified), Cat. No. #CDB-H52H3-1mg, ACRO (human) (UniProt P40259); assay: as above
# [23] = target: T3, Mouse CD79B antigen; assay: ELISA on coated antigen, anti-myc detection
# [24] = target: Human CD79A+CD79B antigen (human) (UniProt P11912); assay: ELISA on coated antigen, anti-myc detection; 2ug antibody added
# Target sequence in this assay (P11912 33-143 limits assumed, chain 1 of 2, one chain of several): as above
# [25] = target: T1, Mouse CD79A+CD79B antigen (mouse); assay: as above
# [26] = target: Human CD79B Protein, His Tag (MALS verified), Cat. No. #CDB-H52H3-1mg, ACRO (human) (UniProt P40259); assay: as above
# BSA, sequence (P02769 25-607 limits assumed): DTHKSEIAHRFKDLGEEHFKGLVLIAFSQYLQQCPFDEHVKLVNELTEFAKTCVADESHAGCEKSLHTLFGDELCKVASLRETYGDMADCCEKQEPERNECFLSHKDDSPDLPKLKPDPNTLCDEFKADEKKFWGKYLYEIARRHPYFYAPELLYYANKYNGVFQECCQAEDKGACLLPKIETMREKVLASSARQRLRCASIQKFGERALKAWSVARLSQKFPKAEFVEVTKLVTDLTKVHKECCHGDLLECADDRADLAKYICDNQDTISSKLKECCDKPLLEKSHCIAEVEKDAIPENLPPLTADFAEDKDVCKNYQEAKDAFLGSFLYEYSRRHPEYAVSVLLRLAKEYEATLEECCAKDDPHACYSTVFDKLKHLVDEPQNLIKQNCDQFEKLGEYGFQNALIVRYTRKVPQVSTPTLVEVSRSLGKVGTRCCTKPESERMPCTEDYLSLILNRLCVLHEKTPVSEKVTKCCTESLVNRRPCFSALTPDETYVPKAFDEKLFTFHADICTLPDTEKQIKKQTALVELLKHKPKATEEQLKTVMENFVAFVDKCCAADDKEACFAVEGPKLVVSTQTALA
binder,measurement,setting,value
"anti-CD79B single-domain antibody JYB11 (VHH, Alpaca VHH from a phage library; ELISA detected with an anti-myc antibody; a myc tag is not described; not shown: His-tag protein at the C-terminal end) VHH: DVQLQESGGGLVQPGGSLSLSCAASMSSPSLWVRAWHRQAPGKQRELVAAINSDGQTMYADSVKGRFTISRDNAKTLVSLQMDSLKPEDTAVYYCNVVTPRGQQYWGQGTQVTVSS",OD450 nm,[1],0.0471 OD450
same,OD450 nm,[2],0.0485 OD450
same,OD450 nm,[3],0.612 OD450
same,OD450 nm,[4],0.0981 OD450
same,OD450 nm,[5],0.379 OD450
same,OD450 nm,[6],0.271 OD450
same,OD450 nm,[7],0.0589 OD450
same,OD450 nm,[8],0.177 OD450
same,OD450 nm,[9],0.0483 OD450
same,OD450 nm,[10],0.0778 OD450
same,OD450 nm,[11],0.0575 OD450
same,OD450 nm,[12],0.0947 OD450
same,binding result,[13],binds
same,OD450 nm,[14],0.0489 OD450
same,OD450 nm,[15],0.048 OD450
same,OD450 nm,[16],0.0567 OD450
same,OD450 nm,[17],0.0582 OD450
same,OD450 nm,[18],0.0528 OD450
same,OD450 nm,[19],0.0469 OD450
same,OD450 nm,[20],0.0556 OD450
same,OD450 nm,[21],0.0586 OD450
same,OD450 nm,[22],0.0516 OD450
same,binding result,[23],no binding (tested: 20ug)
same,OD450 nm,[24],0.519 OD450
same,OD450 nm,[25],0.0651 OD450
same,OD450 nm,[26],0.303 OD450
